Measurements taken from the MegaScale stability set (Tsuboyama et al. 2023).

B1: 1ZHC (parent)
chain: HEFRDEISVLKANNPHFDKIFEKHNQLDDDIKTAEQQNASDAEVSHMKKQKLKLKDEIHSMIIEYREK

Variants of: B1
Assay: folding stability dG (cDNA display proteolysis); higher = more stable
Conditions: PBS, room temperature

Point of comparison: HEFRDEVSVLKANNPHFDKIFEKHNQLDDDIKTAEQQNASDAEVSHMKKQKLKLKDEIHSMIIEYREK, “folding stability dG” value 0.475 kcal/mol. Against it:
- HEFSDEISVLKANNPHFDKIFEKHNQLDDDIKTAEQQNASDAEVSHMKKQKLKLKDEIHSMIIEYREK — higher, 1.05 kcal/mol
- HEFKDEISVLKANNPHFDKIFEKHNQLDDDIKTAEQQNASDAEVSHMKKQKLKLKDEIHSMIIEYREK — higher, 0.923 kcal/mol
- HEFHDEISVLKANNPHFDKIFEKHNQLDDDIKTAEQQNASDAEVSHMKKQKLKLKDEIHSMIIEYREK — higher, 0.919 kcal/mol
- HEFIDEISVLKANNPHFDKIFEKHNQLDDDIKTAEQQNASDAEVSHMKKQKLKLKDEIHSMIIEYREK — higher, 1.02 kcal/mol
- HEFGDEISVLKANNPHFDKIFEKHNQLDDDIKTAEQQNASDAEVSHMKKQKLKLKDEIHSMIIEYREK — higher, 0.834 kcal/mol
- HEFLDEISVLKANNPHFDKIFEKHNQLDDDIKTAEQQNASDAEVSHMKKQKLKLKDEIHSMIIEYREK — higher, 1.17 kcal/mol
- HEFTDEISVLKANNPHFDKIFEKHNQLDDDIKTAEQQNASDAEVSHMKKQKLKLKDEIHSMIIEYREK — higher, 0.952 kcal/mol
- HEFRDWISVLKANNPHFDKIFEKHNQLDDDIKTAEQQNASDAEVSHMKKQKLKLKDEIHSMIIEYREK — higher, 1.55 kcal/mol
- HEFRDYISVLKANNPHFDKIFEKHNQLDDDIKTAEQQNASDAEVSHMKKQKLKLKDEIHSMIIEYREK — higher, 1.42 kcal/mol
- HEFRDLISVLKANNPHFDKIFEKHNQLDDDIKTAEQQNASDAEVSHMKKQKLKLKDEIHSMIIEYREK — higher, 1.76 kcal/mol
- HEFRDNISVLKANNPHFDKIFEKHNQLDDDIKTAEQQNASDAEVSHMKKQKLKLKDEIHSMIIEYREK — lower, 0.08 kcal/mol
- HEFRDPISVLKANNPHFDKIFEKHNQLDDDIKTAEQQNASDAEVSHMKKQKLKLKDEIHSMIIEYREK — lower, 0.04 kcal/mol
- HEFRDMISVLKANNPHFDKIFEKHNQLDDDIKTAEQQNASDAEVSHMKKQKLKLKDEIHSMIIEYREK — higher, 1.46 kcal/mol
- HEFRDRISVLKANNPHFDKIFEKHNQLDDDIKTAEQQNASDAEVSHMKKQKLKLKDEIHSMIIEYREK — lower, 0.234 kcal/mol
- HEFRDSISVLKANNPHFDKIFEKHNQLDDDIKTAEQQNASDAEVSHMKKQKLKLKDEIHSMIIEYREK — lower, 0.271 kcal/mol
- HEFRDFISVLKANNPHFDKIFEKHNQLDDDIKTAEQQNASDAEVSHMKKQKLKLKDEIHSMIIEYREK — higher, 1.4 kcal/mol
- HEFRDGISVLKANNPHFDKIFEKHNQLDDDIKTAEQQNASDAEVSHMKKQKLKLKDEIHSMIIEYREK — lower, -0.608 kcal/mol
- HEFRDAISVLKANNPHFDKIFEKHNQLDDDIKTAEQQNASDAEVSHMKKQKLKLKDEIHSMIIEYREK — higher, 1.3 kcal/mol
- HEFRDQISVLKANNPHFDKIFEKHNQLDDDIKTAEQQNASDAEVSHMKKQKLKLKDEIHSMIIEYREK — lower, -0.376 kcal/mol
- HEFRDKISVLKANNPHFDKIFEKHNQLDDDIKTAEQQNASDAEVSHMKKQKLKLKDEIHSMIIEYREK — lower, -0.498 kcal/mol
- HEFRDCISVLKANNPHFDKIFEKHNQLDDDIKTAEQQNASDAEVSHMKKQKLKLKDEIHSMIIEYREK — higher, 1.95 kcal/mol
- HEFRDTISVLKANNPHFDKIFEKHNQLDDDIKTAEQQNASDAEVSHMKKQKLKLKDEIHSMIIEYREK — higher, 1.14 kcal/mol
- HEFRDDISVLKANNPHFDKIFEKHNQLDDDIKTAEQQNASDAEVSHMKKQKLKLKDEIHSMIIEYREK — higher, 0.718 kcal/mol
- HEFRDVISVLKANNPHFDKIFEKHNQLDDDIKTAEQQNASDAEVSHMKKQKLKLKDEIHSMIIEYREK — higher, 1.5 kcal/mol
- HEFRDIISVLKANNPHFDKIFEKHNQLDDDIKTAEQQNASDAEVSHMKKQKLKLKDEIHSMIIEYREK — higher, 2.1 kcal/mol
- HEFRDHISVLKANNPHFDKIFEKHNQLDDDIKTAEQQNASDAEVSHMKKQKLKLKDEIHSMIIEYREK — lower, 0.158 kcal/mol
- HEFRDELSVLKANNPHFDKIFEKHNQLDDDIKTAEQQNASDAEVSHMKKQKLKLKDEIHSMIIEYREK — lower, 0.235 kcal/mol
- HEFRDENSVLKANNPHFDKIFEKHNQLDDDIKTAEQQNASDAEVSHMKKQKLKLKDEIHSMIIEYREK — lower, -0.499 kcal/mol
- HEFRDECSVLKANNPHFDKIFEKHNQLDDDIKTAEQQNASDAEVSHMKKQKLKLKDEIHSMIIEYREK — higher, 1.14 kcal/mol
- HEFRDEHSVLKANNPHFDKIFEKHNQLDDDIKTAEQQNASDAEVSHMKKQKLKLKDEIHSMIIEYREK — lower, -0.334 kcal/mol
- HEFRDETSVLKANNPHFDKIFEKHNQLDDDIKTAEQQNASDAEVSHMKKQKLKLKDEIHSMIIEYREK — lower, -0.043 kcal/mol
- HEFRDEKSVLKANNPHFDKIFEKHNQLDDDIKTAEQQNASDAEVSHMKKQKLKLKDEIHSMIIEYREK — lower, -0.95 kcal/mol
- HEFRDEESVLKANNPHFDKIFEKHNQLDDDIKTAEQQNASDAEVSHMKKQKLKLKDEIHSMIIEYREK — lower, -0.7 kcal/mol
- HEFRDEASVLKANNPHFDKIFEKHNQLDDDIKTAEQQNASDAEVSHMKKQKLKLKDEIHSMIIEYREK — lower, -0.185 kcal/mol
- HEFRDEFSVLKANNPHFDKIFEKHNQLDDDIKTAEQQNASDAEVSHMKKQKLKLKDEIHSMIIEYREK — lower, 0.109 kcal/mol
- HEFRDEYSVLKANNPHFDKIFEKHNQLDDDIKTAEQQNASDAEVSHMKKQKLKLKDEIHSMIIEYREK — higher, 0.804 kcal/mol
- HEFRDERSVLKANNPHFDKIFEKHNQLDDDIKTAEQQNASDAEVSHMKKQKLKLKDEIHSMIIEYREK — lower, -0.653 kcal/mol
- HEFRDEMSVLKANNPHFDKIFEKHNQLDDDIKTAEQQNASDAEVSHMKKQKLKLKDEIHSMIIEYREK — lower, -0.64 kcal/mol
- HEFRDEWSVLKANNPHFDKIFEKHNQLDDDIKTAEQQNASDAEVSHMKKQKLKLKDEIHSMIIEYREK — lower, 0.295 kcal/mol
